For assay [1], the target named is R-PE-labeled human TIM-3-Fc chimera protein (R&D Systems) (human) (UniProt Q8TDQ0). Kind of assay: flow cytometry competition; R-PE TIM-3-Fc preincubated with 3.125 µg/ml antibody, then apoptotic Jurkat cells showing phosphatidylserine. Background: In flow cytometry, cells or beads pass a laser one at a time.
For assay [2] the target is unchanged. Kind of assay: flow cytometry competition: R-PE-labelled TIM-3-Fc pre-mixed with titrated antibody, then binding to phosphatidylserine-positive apoptotic Jurkat cells; blocked ligand: phosphatidylserine [continued) C].
The target is the same in assay [3]. Briefly: flow cytometry competition: R-PE-labelled TIM-3-Fc pre-mixed with titrated antibody, then binding to phosphatidylserine-positive apoptotic Jurkat cells (MFI); blocked ligand: phosphatidylserine; unit taken from the axis log(Concentration) µg/ml [continued) C].
Assay [4] concerns the target cynomolgus TIM-3 Fc fusion antigen (Sino Biologicals) (cynomolgus monkey (Macaca fascicularis)). Briefly: ELISA; TIM-3 Fc fusion coated at 1 µg/ml, antibody titrated 2-fold from 1000 nM, HRP secondary. For orientation: ELISA stands for enzyme-linked immunosorbent assay.
The target of assay [5] is human TIM-3 Fc fusion antigen (Sino Biologicals) (human) (UniProt Q8TDQ0). The description is as above.
Assay [6] deals with cynomolgus TIM-3 Fc fusion antigen (Sino Biologicals) (cynomolgus monkey (Macaca fascicularis)). Kind of assay: ELISA; EC50 on cynomolgus TIM-3 over EC50 on human TIM-3.
Assay [7] addresses cynomolgus TIM-3 ECD fused C-terminally to human IgG1 Fc (made in-house, ExpiCHO) (cynomolgus monkey (Macaca fascicularis); human). Kind of assay: SPR (IBIS MX96); TIM-3 ECD-Fc captured on anti-human IgG Fc sensor, Fab injected 1-100 nM; 1:1 Langmuir fit.
Assay [8] deals with human TIM-3 ECD fused C-terminally to human IgG1 Fc (made in-house, ExpiCHO) (human) (UniProt Q8TDQ0). The description is as above.

Sequence of cynomolgus TIM-3 ECD fused C-terminally to human IgG1 Fc (made in-house, ExpiCHO) (cynomolgus monkey (Macaca fascicularis); human) (chain, as listed by the source limits assumed): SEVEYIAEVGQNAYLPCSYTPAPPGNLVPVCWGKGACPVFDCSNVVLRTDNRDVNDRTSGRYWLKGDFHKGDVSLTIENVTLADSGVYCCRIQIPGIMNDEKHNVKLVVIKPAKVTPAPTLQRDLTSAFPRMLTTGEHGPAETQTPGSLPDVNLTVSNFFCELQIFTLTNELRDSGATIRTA

For the substance “reference anti-TIM-3 antibody 18571.18571 (humanized ABTIM3 analogue)”, the TIM-3-Fc binding to PtdS-positive cells left, % of the binding with non-blocking antibody 15338.15338 in assay [1] was 3.2%. In assay [2], this substance gave a TIM-3 binding (MFI) at 0.003 µg/ml antibody of 8700 MFI, a TIM-3 binding (MFI) at 0.012 µg/ml antibody of 8730 MFI, a TIM-3 binding (MFI) at 0.049 µg/ml antibody of 8890 MFI and a TIM-3 binding (MFI) at 0.195 µg/ml antibody of 8800 MFI. For the same substance, in assay [2], the TIM-3 binding (MFI) at 0.781 µg/ml antibody came out at 4480 MFI, the TIM-3 binding (MFI) at 3.125 µg/ml antibody came out at 184 MFI, the TIM-3 binding (MFI) at 12.5 µg/ml antibody came to 160 MFI and the TIM-3 binding (MFI) at 50 µg/ml antibody amounted to 157 MFI. Also, the IC50 (in general, the midpoint of a concentration-inhibition curve) in assay [3] stood at 0.782 µg/mL.
On to “reference antibody analogue 18564 ABTIM3”, for which the concentration giving a half-maximal response (EC50) in assay [4] and in assay [5] was 0.07 nM in each case. Also, the Ratio Cynomolgus/Human EC50 in assay [6] turned out to be 1.
Take “Fab fragment of 18564 ABTIM3 (reference analogue)”: the Kd (commonly the constant that tells how readily two partners part at equilibrium) in assay [7] turned out to be 25 nM; in assay [8] it was 0.77 nM.

Source of the values: patent US20190276531A1.
